Test results taken from patent US20090162869A1 (RIKEN, published 2009).

Molecular target: T1, DAP12, endogenous in mouse cells (splenic cells, FL-PDC) (mouse, UniProt O54885 22-114, phosphorylated in CpG-A-stimulated FL-PDC (sites not given))
T1 construct: whole, on cells
Experiment: association in CpG-A-stimulated FL-PDC (FIG. 20); method not described

T1 sequence (O54885 22-114): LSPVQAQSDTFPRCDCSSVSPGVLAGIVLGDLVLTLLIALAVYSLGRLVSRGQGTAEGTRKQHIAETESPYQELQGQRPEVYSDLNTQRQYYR

binding result: binds
B1: membrane molecule (A) of the present invention (PDC-TREM), mouse, full length (receptor)
chain: QNPELLRTQEGETVSVTCWYDSLYHSSEKIWCKQIDNLCYPFVSKSAEKPRFLIQQSSRFNFFTVTMTKLKMSDSGIYHCGIVANNTSVYLRNIHLVVSKGSSVVSTPDIIPATRLTKLPTLITTKHSPSDTTTTRSLPQPTTVVSSPDPRVIIINGTDADRGFVSSVTIPVVCGLLSKTLVFTVLFIVTQKSFGRQAMKAHNSNS
notes: also called the present membrane molecule
